{"source": "patent US10391180B2", "about": "“Self-assembling complex for targeting chemical agents to cells” (CEDARS-SINAI MEDICAL CENTER, priority 2007, dated 2019)", "molecules": {"B1": {"name": "HerDox: non-covalent complex of HerPBK10, a small double-stranded nucleic acid and intercalated Dox (conjugate)", "chain": "LPPRLKEMKSQESAAGSKLVLRCETSSEYSSLRFKWFKNGNELNRKNKPQNIKIQKKPGKSELRINKASLADSGEYMCKVISKLGNDSASANITIVESNEIITGMPASTEGAYVSSESPIRISVSTEGANTSSSTSTSTTGTSHLVKCAEKEKTFCVNGGECFMVKDLSNPSRYLCKCQPGFTGARCTENVPMKVQNQEKAEELYMRRAAMYEEGPPPSYESVVSAAPVAAALGSPFDAPLDPPFVPPRYLRPTGGRNSIRYSELAPLFDTTRVYLVDNKSTDVASLNYQNDHSNFLTTVIQNNDYSPGEASTQTINLDDRSHWGGDLKTILHTNMPNVNEFMFTNKFKARVMVSRLPTKDNQVELKYEWVEFTLPEGNYSETMTIDLMNNAIVEHYLKVGRQNGVLESDIGVKFDTRNFRLGFDPVTGLVMPGVYTNEAFHPDIILLPGCGVDFTHSRLSNLLGIRKRQPFQEGFRITYDDLEGGNIPALLDVDAYQASLKDDTEQGGGGAGGSNSSGSGAEENSNAAAAAMQPVEDMNDHAIRGDTFATRAEEKRAEAEAAAEAAAPAAQPEVEKPQKKPVIKPLTEDSKKRSYNLISNDSTFTQYRSWYLAYNYGDPQTGIRSWTLLCTPDVTCGSEQVYWSLPDMMQDPVTFRSTRQISNFPVVGAELLPVHSKSFYNDQAVYSQLIRQFTSLTHVFNRFPENQILARPPAPTITTVSENVPALTDHGTLPLRNSIGGVQRVTITDARRRTCPYVYKALGIVSPRVLSSRTFKKKKKKKKKK", "modifications": "left off: small tags and cut ends", "notes": "non-covalent complex of HerPBK10, a small double-stranded nucleic acid and intercalated Dox"}}, "key": {"SKOV3": {"test_system": "SKOV3", "test": "Cytotoxicity on cell lines (Table I)", "assay_type": "cell-based", "settings": "50% reduction in cell survival, mean ± 1 SD, read-out: EC50** (uM HerDox)", "protocol": "(§1) FIGS. 17 (A)-(B) illustrates relative cell surface HER subunit levels and cytotoxicity on cell types. FIG. 17 (A) depicts a graph of relative cell surface HER subunit levels as measured by ELISA. Cells were incubated with anti-HER subunit antibodies followed by HRP-conjugated secondary antibodies using standard procedures. Relative cell numbers were measured by crystal violet staining and quantified by measuring crystal violet absorbance at 590 nm. Relative subunit levels are reported as the ELISA signal of each cell population normalized by the relative cell number, or Abs 450 run/590 nm. FIG. 17 (B) depicts toxicity to cells displaying differential HER2. Cytotoxicities from a range of HerDox doses were assessed on each cell line by metabolic assay and confirmed by crystal violet stain. CD50 values shown in log scale were determined by non-linear regression analyses of HerDox dose curves using a scientific graphing program and confirmed using a calculator. The relative HER2 level of each cell line is shown next to each CD50 value."}, "T47D": {"test_system": "T47D", "test": "Cytotoxicity on cell lines (Table I)", "assay_type": "cell-based", "settings": "50% reduction in cell survival, mean ± 1 SD, read-out: EC50** (uM HerDox)", "protocol": "as §1"}, "MDA-MB-435": {"test_system": "MDA-MB-435", "test": "Cytotoxicity on cell lines (Table I)", "assay_type": "cell-based", "settings": "50% reduction in cell survival, mean ± 1 SD, read-out: EC50** (uM HerDox)", "protocol": "as §1"}, "[1]": {"test": "HerDox stability in serum-containing media at 37° C (Ni beads)", "assay_type": "in vitro ADME", "settings": "10% fetal bovine serum media", "protocol": "FIGS. 6 (A)-(B) illustrates conjugate stability under different storage conditions, or in serum. As illustrated in FIG. 6 (A), HerDox was incubated up to 12 days at 4° C., RT, or 37° C. Samples were filtered through ultrafiltration spin columns every other day, and retentate and filtrate absorbances measured at 480 nm to determine relative Dox retention or release from conjugates, respectively. As illustrated in FIG. 6 (B), to mimic extended exposure to cells in culture medium, HerDox immobilized on Ni-NTA beads were incubated with bovine serum in DMEM for the indicated times at 37° C. before each sample was pelleted. Absorbance of supernatants (Filtrates) and bead eluates (Retentates) were measured at 480 nm to detect Dox. Relative Dox release or retention in serum is expressed as normalized to control (corresponding sample lacking serum). N=3 per time point.\nThe inventors tested the stability of HerDox over 12 days under different storage temperatures: 4° C., room temperature, or 37° C. On each day, a sample underwent ultrafiltration, then filtrates and retentates were measured to determine whether any Dox was released from the complex. […] The inventors also examined HerDox stability in serum-containing media at 37° C. […] Dox retention in the conjugate was also assessed by eluting the conjugate from the beads at each time point."}, "[2]": {"test": "HerDox stability in cell culture media, agarose gel", "assay_type": "in vitro ADME", "settings": "serum-containing culture media, 37° C.", "protocol": "FIGS. 9 (A)-(C) illustrates targeting in a mixed cell culture. As illustrated in FIG. 10 (A), equal numbers of MDA-MB-435 and GFP(+) MDA-MB-231 cells were treated with Dox alone (0.5 uM), Her-Dox (containing 0.5 uM Dox), or HerPBK10 (1.2 ug/well, equivalent to HerPBK10 in HerDox). Wells were assayed for GFP fluorescence (to determine relative MDA-MB-231 number) and crystal violet staining (to determine total cell number). As illustrated in FIG. 9 (B), cell survival was determined by calculating the relative doubling time (DT) of experimental (exp) cells normalized by control (con) cells based on the crystal violet stains (total cells) and GFP fluorescence (MDA-MB-231 cells). The DT of MDA-MB-435 was determined by subtracting the DT of MDA-MB-231 from the total cell DT. Relative survival is shown for Day 2 of treatment. As illustrated in FIG. 9 (C), there is stability in cell culture. Aliquots of culture media containing HerDox (after incubation for the indicated times at 37° C.) were electrophoresed on a 2% agarose gel. HerDox incubated at 37° C. in HEPES-buffered saline, lacking serum, was processed in parallel. Dox fluorescence was visualized by UV excitation. Free Dox (Dox alone) is not retained in the gel whereas Dox incorporated in HerDox is. […]"}}}
{"molecule": "B1", "values": [{"measurement": "EC50", "setting": "SKOV3", "result": "0.18 ± 0.03", "unit": "µM"}, {"measurement": "EC50", "setting": "T47D", "result": "0.64 ± 0.04", "unit": "µM"}, {"measurement": "EC50", "setting": "MDA-MB-435", "result": "0.74 ± 0.07", "unit": "µM"}, {"measurement": "release of Dox from the conjugate in serum", "setting": "[1]", "result": "no significant release of Dox"}, {"measurement": "Dox retention by the conjugate in serum", "setting": "[1]; each time point", "result": "completely retained"}, {"measurement": "loss of Dox fluorescence from conjugate over time", "setting": "[2]", "result": "no such loss from HerDox is detectable"}]}
